# Data published in US6667388B2, “Peptide inhibitor of MMP activity and angiogenesis” (Beth Israel Deaconess Medical Center, priority 2001, dated 2003).
# Experiments:
# [1] = target: T1, proMMP-9 activated by MMP3 (Homo sapiens, UniProt P14780); experiment: MMP enzymatic assay with [3H]-labeled gelatin substrate, proMMP-9 activated by MMP3; format: biochemical; conditions: peptide tested as MBP fusion protein; proMMP-9 activated with MBP-MMP3, incubated for 2 hours; FIG. 3
# T1 construct: purchased CALBIOCHEM
# Experimental: FIG. 3: is a bar graph depicting the inhibitory effect of the peptide of the invention on activated MMP-9 in an in vitro assay. ProMMP-9 activated with MBP-MMP3 was incubated for 2 hours with control protein or recombinant MBP-peptide fusion protein (MBP-29).
# (§1) For expression of the peptide as a fusion protein for subsequent use in MMP-9 inhibition assays, the cDNA encoding the peptide in SEQ ID NO:2 was cloned into the prokaryotic expression vector pMAL.c2× (NEN). The peptide was expressed as a fusion with the maltose binding protein (MBP) in the bacterial strain, BL21-codon plus (STRATAGENE). The bacteria were transformed using any standard method known in the art and grown at 37° C., as recommended by the supplier. The bacterial culture was supplemented with IPTG (isopropyl B-D-thiogalacto pyranoside) to a final concentration of 0.3 mM and grown further. The fusion protein with MBP was subsequently extracted from the bacterial cells using purified amylose resin. ProMMP (CALBIOCHEM) was used for assessing functionality of the bacterially expressed MBP-fusion peptide.
# (§2) The enzymatic assays were performed using [3H]-labeled gelatin substrate. […] The radioactivity in the TCA soluble fraction was determined by a β-scintillation counter which gives a measure of the enzymatic activity of MMP-9.
# proMMP-9 = target: T2, proMMP-9 (Homo sapiens, UniProt P14780); experiment: MMP enzymatic assay with [3H]-labeled gelatin substrate, basal activity of proMMP-9; format: biochemical; conditions: peptide tested as MBP fusion protein; proMMP9 preincubated at 37° C. for 2 hours with 10 or 100 ng, then [3H]-labeled substrate for 1 hour; FIG. 2
# T2 construct: purchased CALBIOCHEM
# Experimental: FIG. 2: is a bar graph depicting the inhibitory effect of the peptide of the invention on MMP-9 activity in an in vitro assay. ProMMP9 was preincubated at 37° C. for 2 hours with 10 or 100 ng of recombinant MBP-peptide fusion protein (MBP-29) followed by addition of [^3H]-labeled substrate for 1 hour.
# as §1, §2
# mouse TSP2-TSR = target: T3, mouse TSP2-TSR (Mus musculus, UniProt Q03350); experiment: Yeast two-hybrid screen with TSP2-TSR as bait; format: binding; conditions: transactivation of reporter genes HIS3 and lacZ
# T3 construct: The TSP-1 and TSP-2 TSR regions corresponded to nucleotides 1342-1861 and 1356-1876 of TSP-1 and TSP-2 respectively; expressed in transfected cells; host or cells: S. cerevisiae strain Y190 (bait vector pAS2-2)
# Experimental: Generally, the nomenclature and the laboratory procedures in recombinant DNA technology described here are well known to those skilled in the art and are commonly employed in the art. The peptide of SEQ ID NO:1 was isolated by the yeast two-hybrid system using the MATCHMAKER two-hybrid system from CLONTECH.
# The S. cerevisiae strain Y190 (CLONTECH, CA) was used for cDNA library screening and for direct testing of protein—protein interactions. The cells were grown at 30° C. either in rich YPD media or minimal media with the appropriate amino-acid supplements. The minimal media were SD-Trp, in which tryptophan was omitted; SD-Leu, in which leucine was omitted; SD-Trp, Leu, in which both tryptophan and leucine were omitted, and SD-Trp, leu, His, in which tryptophan, leucne and histidine were lacking.
# The constructs for use in the yeast two-hybrid system were based on the GAL4 two-hybrid system 2, which includes the cloning vectors pAS2-1 and pACT2 (CLONTECH, CA). […] A bait vector with a second reading frame, designated pAS2-2, was constructed by linearizing the pAS2-1 with NcoI and filling-in using T4 DNA polymerase. […]
# During the screen, the interaction between the bait (TSP1-TSR or TSP2-TSR) and the prey (NIH3T3 translational library) were assessed by their ability to transactivate the reporter genes HIS3 and lacZ. […]
# T1 sequence (P14780 107-707 limits assumed): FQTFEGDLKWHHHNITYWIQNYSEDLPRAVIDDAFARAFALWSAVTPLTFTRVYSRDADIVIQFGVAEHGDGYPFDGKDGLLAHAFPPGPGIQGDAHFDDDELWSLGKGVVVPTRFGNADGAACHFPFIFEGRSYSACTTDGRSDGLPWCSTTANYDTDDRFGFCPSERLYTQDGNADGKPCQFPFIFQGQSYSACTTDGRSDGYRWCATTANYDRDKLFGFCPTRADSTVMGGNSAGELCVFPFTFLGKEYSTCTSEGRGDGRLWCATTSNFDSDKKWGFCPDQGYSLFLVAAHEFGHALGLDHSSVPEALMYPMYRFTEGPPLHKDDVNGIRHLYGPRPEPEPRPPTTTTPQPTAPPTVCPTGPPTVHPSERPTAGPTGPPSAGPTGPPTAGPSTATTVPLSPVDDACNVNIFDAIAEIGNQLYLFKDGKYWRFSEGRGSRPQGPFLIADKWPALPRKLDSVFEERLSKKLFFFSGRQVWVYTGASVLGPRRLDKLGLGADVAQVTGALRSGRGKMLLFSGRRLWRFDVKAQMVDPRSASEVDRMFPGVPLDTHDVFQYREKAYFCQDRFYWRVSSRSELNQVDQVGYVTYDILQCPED
# T2 sequence (P14780 20-707 limits assumed): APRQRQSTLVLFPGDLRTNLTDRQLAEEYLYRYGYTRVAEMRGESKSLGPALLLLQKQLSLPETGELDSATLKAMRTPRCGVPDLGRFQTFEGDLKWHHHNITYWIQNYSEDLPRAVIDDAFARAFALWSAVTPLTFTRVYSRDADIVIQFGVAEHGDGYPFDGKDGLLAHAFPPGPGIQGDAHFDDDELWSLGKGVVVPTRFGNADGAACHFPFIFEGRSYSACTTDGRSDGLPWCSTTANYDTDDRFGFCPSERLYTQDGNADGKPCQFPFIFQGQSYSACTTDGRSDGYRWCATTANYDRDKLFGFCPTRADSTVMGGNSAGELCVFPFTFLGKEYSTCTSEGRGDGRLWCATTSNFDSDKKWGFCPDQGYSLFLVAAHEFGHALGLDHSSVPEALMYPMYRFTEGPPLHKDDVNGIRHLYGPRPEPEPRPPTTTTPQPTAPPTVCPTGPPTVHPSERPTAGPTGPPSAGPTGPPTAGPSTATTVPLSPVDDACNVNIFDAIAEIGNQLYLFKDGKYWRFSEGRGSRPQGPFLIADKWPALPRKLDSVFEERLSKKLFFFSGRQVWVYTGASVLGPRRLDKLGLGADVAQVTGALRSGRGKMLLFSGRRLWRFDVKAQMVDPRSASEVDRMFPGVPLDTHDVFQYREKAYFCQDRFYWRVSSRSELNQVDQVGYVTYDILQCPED
# T3 sequence (Q03350 381-552): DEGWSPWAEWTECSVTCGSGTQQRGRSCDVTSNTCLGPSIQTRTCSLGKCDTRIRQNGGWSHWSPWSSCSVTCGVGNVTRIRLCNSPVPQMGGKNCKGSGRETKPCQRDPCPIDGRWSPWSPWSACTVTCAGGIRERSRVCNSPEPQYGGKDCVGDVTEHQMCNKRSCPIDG
sequence,measurement,setting,value
APWNCCPVSCCGNCCFFRAL QSCPQG (APWNCCPVSCCGNCCFFRALQSCPQG; OTHER INFORMATION: Peptide Inhibitor of MMP- 9 Activity and Angiogenesis) [peptide of SEQ ID NO:1],inhibition of MMP-3 dependent activation of MMP (activated MMP-9),[1],inhibited in a dose-dependent manner
same,inhibition of MMP-9 activity (basal activity of proMMP-9),proMMP-9,inhibited MMP-9 activity in a dose-dependent manner
same,interaction with TSP-2,mouse TSP2-TSR,isolated as an interactor of TSP-2
